Consider 2 proteins from article PMC5441561 (Science (New York, N.Y.), 2017).

Read-outs that look alike come from different tables or passages of the source.

Data set [1] concerns the molecule itself. Kind of data set: crystal structure.
Data set [2] deals with the molecule itself. Kind of data set: crystal structure. This is another data set of the same source.

Usually stoichiometry N stands for a count of units in the complex or per binding partner.

B1: KaiA_(cryst) (domain or fragment, Thermosynechococcus elongatus)
chain: SNVDPQHRLSQKLKERLGYLGVYYKRDTAFFFRRMSPADKRKLLDELRSIYRTIVLEYFNTDAKVNERIDEFVSKAFFADISVSQVLEIHVELMDTFSKQLKLEGRSEDILLDYRLTLIDVIAHLSEMYRRSIPREV
In the case of B1, in the data set “crystal structure [1]”, the “stoichiometry N” value came out at 2.

B2: KaiC_(S431E) (enzyme, Thermosynechococcus elongatus, UniProt Q79V60 1-518, looked up)
chain: MTNLPEHQSSPTEQSSAEVKKIPTMIEGFDDISHGGLPQGRTTLVSGTSGTGKTLFAVQFLYNGITIFNEPGIFVTFEESPQDIIKNALSFGWNLQSLIDQGKLFILDASPDPDGQEVAGDFDLSALIERIQYAIRKYKATRVSIDSVTAVFQQYDAASVVRREIFRLAFRLKQLGVTTIMTTERVDEYGPVARFGVEEFVSDNVVILRNVLEGERRRRTVEILKLRGTTHMKGEYPFTINNGINIFPLGAMRLTQRSSNVRVSSGVKTLDEMCGGGFFKDSIILATGATGTGKTLLVSKFLETGCQQGERALLFAYEESRAQLSRNASSWGIDFEELERRGLLRIICAYPESAGLEDHLQIIKSEIADFKPSRVAIDSLSALARGVSNNAFRQFVIGVTGFAKQEEITGFFTNTTDQFMGSNSITESHIETITDTILLLQYVEIRGEMSRAINVFKMRGSWHDKGIREYVITEKGAEIRDSFRNFEGIISGTPTRISVDEKTELARIAKGMQDLESE
As to B2, the “stoichiometry N” value in the data set “crystal structure [2]” came to 6.
